B1: LINE1-full (parent)
chain: UACGUAGGUGGUUUUCCCCUGAUAGUGCUAAGGGGGCCUGGAAGUUUGGACUGGGCAGAGCUCAACACAGCGUGGCAAAGUGGCUGUGGCUAGACUGCCUCUCUGGAUUCCUCGUCACUCAGCAGGGCAUCUCUGAGAGAAAUGCC

In the data set the parent is B1. The experiment in a line: self-cleavage, relative activity (ratio to wild type); higher = more cleavage; in vitro, sequencing; the parent is a self-cleaving ribozyme.
Regarding G70C C90A, the self-cleavage was 0.02.

Turning to A69G G89A, the self-cleavage is 0.03.

As to G74A U87A, the self-cleavage was determined as 0.07.

Turning to U73C U108C, the self-cleavage was found to be 0.95.

On to G70U U102A, for which the self-cleavage worked out at 0.11.

With G72A C90G, the self-cleavage is 0.03.

In the case of G72A U115C, the self-cleavage turned out to be 0.9.

Regarding G72A G137A, the self-cleavage stood at 0.46.

As to G74A U102G, the self-cleavage was determined as 0.56.

Regarding G74A A138G, the self-cleavage amounted to 1.26.

Take C71U C111U: the self-cleavage was 0.82.

On to C71A U132C, for which the self-cleavage came out at 0.15.

For the variant U73C U119C, the self-cleavage was determined as 2.11.

For U73C U119A, the self-cleavage turned out to be 1.64.

On to A69U A129G, for which the self-cleavage was 0.07.

Turning to A69U A129U, the self-cleavage was 0.06.

For G72U U81C, the self-cleavage turned out to be 1.28.

As to U73C U112A, the self-cleavage worked out at 1.41.

Take U73C U112C: the self-cleavage stood at 1.65.

Consider A69U A77G, for which the self-cleavage was 0.07.

As for A69U A77U, the self-cleavage was found to be 0.06.

Turning to G74A G86A, the self-cleavage is 0.

For the variant C71U A92G, the self-cleavage was 0.06.

Turning to A69G C90A, the self-cleavage worked out at 0.

With A69G C90U, the self-cleavage is 0.07.

Take U73C U96G: the self-cleavage turned out to be 0.19.

Consider U73C U96A, for which the self-cleavage turned out to be 0.14.

With U73C U96C, the self-cleavage was 0.11.

For the variant G72U U85G, the self-cleavage is 0.1.

With U73G A136U, the self-cleavage came to 0.81.

With U73A C111U, the self-cleavage was 1.54.

Take A69U U130G: the self-cleavage stood at 0.09.

With C71U A140G, the self-cleavage came out at 0.9.

For the variant G74A A140G, the self-cleavage was 1.22.

As to G74A A140U, the self-cleavage turned out to be 1.31.

A69U U109G: the self-cleavage is 0.

For A69U U109C, the self-cleavage stood at 0.06.

With G70C A142G, the self-cleavage turned out to be 0.14.

A69U G80A: the self-cleavage was determined as 0.3.

Regarding A69U G80U, the self-cleavage came to 0.03.

Take C71U C120U: the self-cleavage worked out at 2.76.

Take A69G C128U: the self-cleavage amounted to 0.63.

With C71A A129G, the self-cleavage amounted to 0.23.

On to G72A U96A, for which the self-cleavage amounted to 0.04.

As to U73C A94C, the self-cleavage stood at 0.32.

For U73C A94U, the self-cleavage is 0.69.

U73G A124U: the self-cleavage was 1.36.

With U73G A124G, the self-cleavage was 0.78.

In the case of A69U C116A, the self-cleavage was 0.05.

As to G74A A79G, the self-cleavage was 0.8.

Take G74A A79U: the self-cleavage was found to be 2.06.

For the variant C71U U115G, the self-cleavage came out at 1.23.

On to C71U U115C, for which the self-cleavage came to 1.12.

Regarding G70C G144A, the self-cleavage worked out at 0.15.

With C71U U96A, the self-cleavage stood at 0.04.

Consider C71U U96C, for which the self-cleavage is 0.05.

With G72A U102C, the self-cleavage amounted to 0.46.

As for U73A U87A, the self-cleavage stood at 0.07.

For the variant G70A A138G, the self-cleavage came out at 0.21.

As for U73C C146A, the self-cleavage amounted to 2.24.

Regarding U73C C146U, the self-cleavage came to 1.04.

Consider A69G C113A, for which the self-cleavage was found to be 0.48.

As to A69G C113U, the self-cleavage was 0.41.

For the variant G74A A117C, the self-cleavage came to 1.63.

Turning to C71A G83U, the self-cleavage was found to be 0.58.

U73A G144A: the self-cleavage amounted to 1.4.

For U73C G135A, the self-cleavage is 1.07.

Turning to G72C A136G, the self-cleavage was 1.41.

A69U U81A: the self-cleavage came out at 0.01.

In the case of C71A U115A, the self-cleavage was 0.16.

U73C U134G: the self-cleavage was determined as 1.7.

With U73C C99U, the self-cleavage is 1.06.

In the case of A69G U73A, the self-cleavage stood at 0.28.

With U73C C98U, the self-cleavage was 0.36.

Take A69U C95A: the self-cleavage is 0.02.

As for U73C A107G, the self-cleavage was 2.23.

For A69U A124U, the self-cleavage turned out to be 0.09.

Regarding A69U A124G, the self-cleavage was found to be 0.05.

For the variant G72C C90U, the self-cleavage turned out to be 0.03.

For C71U A121U, the self-cleavage worked out at 0.93.

Regarding C71U A79U, the self-cleavage is 0.74.

In the case of A69G C84G, the self-cleavage amounted to 0.06.

As for A69U U119A, the self-cleavage turned out to be 0.03.

As to A69U U119C, the self-cleavage stood at 0.06.

G72U U87A: the self-cleavage was found to be 0.03.

For C71A G122A, the self-cleavage worked out at 0.12.

As to U73A G97A, the self-cleavage was determined as 0.11.

G70C U102A: the self-cleavage worked out at 0.07.

For U73A C99A, the self-cleavage worked out at 0.92.

Consider U73C C145A, for which the self-cleavage was 1.44.

With G72C, the self-cleavage turned out to be 1.18.

On to G72A, for which the self-cleavage was 1.3.

For G72U, the self-cleavage came to 0.9.

For the variant A69G A124U, the self-cleavage turned out to be 0.

A69U U108C: the self-cleavage was 0.06.

As to A69G U109C, the self-cleavage was 0.29.

As for U73A A107G, the self-cleavage was determined as 2.03.

Take A69U A141U: the self-cleavage stood at 0.05.

Consider G74A C84U, for which the self-cleavage came out at 0.07.

Consider U73A A79U, for which the self-cleavage is 2.48.

Take C71A C128U: the self-cleavage is 0.18.

With U73G U87A, the self-cleavage was 0.03.

For the variant U73C A129U, the self-cleavage was found to be 2.11.

G70U U91C: the self-cleavage amounted to 0.03.

On to U73A C118U, for which the self-cleavage was found to be 1.25.

In the case of G70A U130A, the self-cleavage is 0.15.

In the case of G72A G88A, the self-cleavage was 0.03.

Turning to G74A A142G, the self-cleavage is 1.1.

As for G70A U115C, the self-cleavage stood at 0.16.

Consider C71U G75A, for which the self-cleavage was 0.59.

For A69U U85C, the self-cleavage turned out to be 0.

Consider A69U A107U, for which the self-cleavage was found to be 0.04.

As for A69U A107G, the self-cleavage worked out at 0.08.

In the case of U73A U115A, the self-cleavage was found to be 1.66.

As to U73G U85G, the self-cleavage worked out at 0.06.

With U73C A138G, the self-cleavage is 2.26.

For the variant A69U A79G, the self-cleavage came out at 0.05.

For A69G G106A, the self-cleavage came out at 0.61.

Consider U73C U132C, for which the self-cleavage came to 2.09.

On to U73C U132A, for which the self-cleavage was determined as 1.25.

With A69G U119C, the self-cleavage is 0.64.

A69G U119A: the self-cleavage came to 0.65.

Turning to C71G A140U, the self-cleavage is 0.53.

For G72U A142G, the self-cleavage stood at 0.

Turning to G74A A121G, the self-cleavage stood at 1.43.

A69G U143C: the self-cleavage turned out to be 0.5.

Take A69G U143A: the self-cleavage is 0.31.

As for A69G U87G, the self-cleavage amounted to 0.48.

As to A69G U87A, the self-cleavage was 0.03.

Consider A69G U87C, for which the self-cleavage came to 0.07.

As to G74A A92U, the self-cleavage was 0.1.

As to G72A A77U, the self-cleavage turned out to be 1.44.

For the variant U73C G86U, the self-cleavage worked out at 0.03.

As to U73C G122A, the self-cleavage is 1.19.

For the variant A69G G125A, the self-cleavage worked out at 0.72.

On to A69G U91C, for which the self-cleavage is 0.

As to G70U A92G, the self-cleavage was determined as 0.08.

As to G70U U119C, the self-cleavage was found to be 0.07.

Take G70U U119A: the self-cleavage was determined as 0.03.

For the variant A69G C123U, the self-cleavage is 0.45.

As for U73A C95G, the self-cleavage worked out at 0.06.

Consider U73G U115C, for which the self-cleavage was found to be 2.26.

Consider U73C G137U, for which the self-cleavage was 2.46.

As to C71U A78G, the self-cleavage was 0.41.

As to U73A A117U, the self-cleavage is 1.81.

As to U73C C120A, the self-cleavage came to 1.97.

In the case of C71A A138G, the self-cleavage was 0.33.

Consider G72A U104A, for which the self-cleavage was determined as 0.93.

With U73A G127A, the self-cleavage was 1.58.

Regarding A69G U100A, the self-cleavage was found to be 0.17.

As to A69G U100C, the self-cleavage was found to be 0.98.

For the variant U73C C123U, the self-cleavage amounted to 1.05.

Take A69G C120U: the self-cleavage was 0.44.

Regarding G72A A78U, the self-cleavage turned out to be 1.81.

Regarding G72A A78G, the self-cleavage was found to be 1.14.

With U73C G74U, the self-cleavage stood at 1.64.

Turning to C71U U87C, the self-cleavage is 0.04.

Regarding A69U U112A, the self-cleavage came out at 0.04.

Regarding A69U U112C, the self-cleavage stood at 0.06.

As to G70C U108C, the self-cleavage stood at 0.29.

G72U U115C: the self-cleavage was determined as 1.31.

As to U73G A121G, the self-cleavage was determined as 2.45.

Regarding U73C G139U, the self-cleavage turned out to be 2.83.

For U73A U109C, the self-cleavage turned out to be 1.05.

Take U73A A141G: the self-cleavage came out at 1.74.

For the variant C71U U132C, the self-cleavage is 1.05.

Consider C71G U112C, for which the self-cleavage came to 0.37.
